From the supplement of paper PMC12042874
± gives the uncertainty stated by the source.

Experiment: amyloid nucleation score (Sup35N fusion, yeast selection) (log enrichment); library NNK3; higher = more nucleation; inactive = no reads after selection
Method in brief: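 Peptides of 20 random codons, each fused to Sup35N, were expressed in psi-negative yeast. Cells were induced with 100 μM copper sulfate for 24 hours and grown 7 days at 30°C on medium lacking adenine and uracil, and plasmid inserts before and after selection were Illumina-sequenced. Nucleation scores are DiMSum log enrichments of output over input reads, centred on the mode score of non-aggregating sequences, and sequences under 100 input reads were excluded.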

NLGLRGPLLAMKCMIACYVQ
amyloid nucleation score: inactive

NLGSCVRVGQWISPRRA
amyloid nucleation score: inactive

NLIVKSNYGAGNDMRCGDYT
amyloid nucleation score: inactive

NLMEHSIGLYAYYYSLNDCS
amyloid nucleation score: inactive

NLPLKFDTFTFLCVRLNSLS
amyloid nucleation score: inactive

NLQERAL
amyloid nucleation score: -0.438 ± 0.88

NLRHCGCSALGTMTDVNVRG
amyloid nucleation score: 0.692 ± 0.2

NLSSVSIVALLQRVPIYKYL
amyloid nucleation score: inactive

NLSWKGNAQDCLMGSVL
amyloid nucleation score: inactive

NLTRGYISRKRMSCPQ
amyloid nucleation score: inactive

NLVLCN
amyloid nucleation score: inactive

NLVNFYYLVRAFDCELLFRG
amyloid nucleation score: inactive

NLWLKSFWSLRLFLRDL
amyloid nucleation score: 0.68 ± 0.23

NLWVADWIEHHYPSRSSIFA
amyloid nucleation score: inactive

NLWYAFMSFVVNDGHIRLGR
amyloid nucleation score: 1.1 ± 0.11

NLYFGHKSTS
amyloid nucleation score: inactive

NMCDNMQQIMVSGYVVVWVY
amyloid nucleation score: 1.19 ± 0.15

NMIIVDFDNLLYNMNYHLAG
amyloid nucleation score: 1.49 ± 0.11

NMLKAASKTVKG
amyloid nucleation score: inactive

NMQVHFIMCARSRLQGNHVS
amyloid nucleation score: inactive

NMRVCCIGNSFSMGYLICWY
amyloid nucleation score: 2.47 ± 0.057

NNCEVNLCSLELPWKTKLMM
amyloid nucleation score: 0.264 ± 0.85

NNCTSTRSMVVGEYRKKGAL
amyloid nucleation score: -0.46 ± 0.84

NNGRYLMGRRKESDLLLGQW
amyloid nucleation score: inactive

NNRFTGILPVWTMHE
amyloid nucleation score: inactive

NPGRYRGGRTAHIFPERDIR
amyloid nucleation score: inactive

NPLDSLYLIDIFAHSSASEL
amyloid nucleation score: inactive

NPRHGYLPTIIGLDHSIHDL
amyloid nucleation score: inactive

NPSQSRSASWQHSYHRISGL
amyloid nucleation score: inactive

NQNIMWIAKYIF
amyloid nucleation score: 0.845 ± 0.14

NQVRVSKSVNRAIDASPEWD
amyloid nucleation score: inactive

NQYQSLSRRCSAGALGALVV
amyloid nucleation score: inactive

NRATVYMTQAKGCCSALFQV
amyloid nucleation score: 0.315 ± 0.3

NRAVQRFCCDFNAPHIPFR
amyloid nucleation score: inactive

NRFINASNS
amyloid nucleation score: inactive

NRFQLVSRYAWHSWVK
amyloid nucleation score: inactive

NRIVQAFPSIGGFATNVCLC
amyloid nucleation score: inactive

NRMLNYIFDTTS
amyloid nucleation score: inactive

NRNFYGL
amyloid nucleation score: inactive

NRPLNIAAVLY
amyloid nucleation score: inactive

NRRVCYSLISMGIVLVCRYG
amyloid nucleation score: 0.306 ± 0.22

NRSRNMESVRDSLLSVVNRE
amyloid nucleation score: inactive

NRTRCGDYILGCQSSFDTCH
amyloid nucleation score: inactive

NRVSGALKPLVVS
amyloid nucleation score: inactive

NSCYTASCS
amyloid nucleation score: -0.381 ± 0.63

NSFFKGGWMHPG
amyloid nucleation score: inactive

NSGLSIVWDWLDCFSGMKYS
amyloid nucleation score: inactive

NSHWWCSGFVSVVKIVAEFG
amyloid nucleation score: 1.23 ± 0.1

NSIAYMVWILALDCCNWGSQ
amyloid nucleation score: 2.85 ± 0.07

NSLVGLVCKTGSSFTRNKVV
amyloid nucleation score: -0.104 ± 0.75

NSMYYPYQVVRWLVDWHVIR
amyloid nucleation score: inactive

NSNYSVG
amyloid nucleation score: inactive

NSRLFAYKLKLVV
amyloid nucleation score: inactive

NSRNLR
amyloid nucleation score: inactive

NSRSKNWGLVFPSNRGLVS
amyloid nucleation score: inactive

NSSCSCTCLLSGHRHTP
amyloid nucleation score: 0.829 ± 0.24

NSTFRFTVTRFCIAPSEYIG
amyloid nucleation score: 0.509 ± 0.25

NSVRLFKNFQWWAFSRHSRL
amyloid nucleation score: inactive

NSWRHKMMQMKSYHSNVCIW
amyloid nucleation score: inactive

NSYMHGQDF
amyloid nucleation score: inactive

NTCMQPCLSRVCFELDVGCR
amyloid nucleation score: inactive

NTDFYVVVDRIMFRLLHGFK
amyloid nucleation score: inactive

NTDPTQVFQASN
amyloid nucleation score: inactive

NTFCGVEISSYIGAARKCLK
amyloid nucleation score: inactive

NTGCSDNFESFCLKATVHWV
amyloid nucleation score: inactive

NTHMRAIMNPLDVSVPRPHK
amyloid nucleation score: inactive

NTNVVSDYIHHAF
amyloid nucleation score: inactive

NTSISGSSM
amyloid nucleation score: inactive

NTVNWSFFVMVLSFSSRETV
amyloid nucleation score: inactive

NTYDAVISIACVSHQSICST
amyloid nucleation score: inactive

NVAAISGILYSLLTFFLSGG
amyloid nucleation score: inactive

NVHMMC
amyloid nucleation score: inactive

NVINSMGLSKQIIPSQVQSS
amyloid nucleation score: inactive

NVIRISICRSMRMGLKGCIF
amyloid nucleation score: 0.732 ± 0.19

NVLFRMTRHAYSKLTWLFKR
amyloid nucleation score: inactive

NVNVNAFKMSLELRAR
amyloid nucleation score: inactive

NVRGNNLSRM
amyloid nucleation score: inactive

NVRWLFLAVSCQL
amyloid nucleation score: inactive

NVYELIDCGLTYQVYSYGSR
amyloid nucleation score: 0.611 ± 0.24

NVYLKLTA
amyloid nucleation score: inactive

NVYMHAMCRWDVQGTAR
amyloid nucleation score: inactive

NVYTPSIFACWSLCEGFFGI
amyloid nucleation score: 2.2 ± 0.063

NVYVSSRVYISK
amyloid nucleation score: 2.88 ± 0.06

NWLDWYYPYLKMVIATGFND
amyloid nucleation score: inactive

NWNYLISMRGFTEYGESFWW
amyloid nucleation score: -0.18 ± 0.61

NWSSRFMTT
amyloid nucleation score: inactive

NWVLARIWW
amyloid nucleation score: 0.755 ± 0.18

NWVQSSMNQ
amyloid nucleation score: inactive

NWWFPTFVRVFIYEVGLVLK
amyloid nucleation score: inactive

NWWIRGS
amyloid nucleation score: -0.185 ± 0.82

NWYLALSGLVLSPYRGIRSG
amyloid nucleation score: inactive

NYAYTVMGGTIYRLWGRVMR
amyloid nucleation score: inactive

NYCDIYQGSNIF
amyloid nucleation score: inactive

NYFGLWGCHTCITCYPVTLV
amyloid nucleation score: 1.29 ± 0.13

NYKLQKHAWMNYSAHQECLF
amyloid nucleation score: inactive

NYLNTVPVPGGPMVCMQHRI
amyloid nucleation score: inactive

NYLSASVCRRRDFI
amyloid nucleation score: inactive

NYMTVRNGLIISIAPRRLRD
amyloid nucleation score: 1.83 ± 0.085

NYNYNRSAHSGCPPGLEGVM
amyloid nucleation score: inactive

NYRAPMCCELFNKWVF
amyloid nucleation score: inactive

NYRPRKKVFGLR
amyloid nucleation score: -0.005 ± 0.88

NYRRGVRKPSFCL
amyloid nucleation score: inactive

NYSRFGNKKFYHP
amyloid nucleation score: inactive

NYVLPIVCL
amyloid nucleation score: inactive

NYVVRGRSQNVRNSEDNWGK
amyloid nucleation score: inactive

PAMVCNPTQATRGKSRMVPL
amyloid nucleation score: inactive

PATVNRSWNFGIRFNGARNN
amyloid nucleation score: -0.404 ± 0.8

PCHPRGKRENTMRAWGRSCE
amyloid nucleation score: inactive

PCPLRTTVW
amyloid nucleation score: inactive

PCRICINCCRRCIILLLF
amyloid nucleation score: inactive

PCSGDSLLVSNTKNRSL
amyloid nucleation score: inactive

PDSKWVFRNAALMTETCIGR
amyloid nucleation score: inactive

PEFMTVLDVTMSYWWESCLG
amyloid nucleation score: inactive

PERTPFGSNYIYFVKRTRLL
amyloid nucleation score: inactive

PFHLRVMKIRLRLPVVHLKG
amyloid nucleation score: inactive

PFNYVVRWESKLQSHYFGLY
amyloid nucleation score: inactive

PFRNMLGMNPNSQTLRVMVR
amyloid nucleation score: inactive

PFSRYPVGCLGVSPYRVISS
amyloid nucleation score: inactive

PFSWCFICKSL
amyloid nucleation score: inactive

PGDFISDEAMDSNVYFRLQS
amyloid nucleation score: -0.693 ± 0.8

PGIIGTSNSFYQCVMWQVFG
amyloid nucleation score: 2.13 ± 0.063

PGIPGPQLIYRDTILTLECM
amyloid nucleation score: 0.03 ± 0.88

PGIQYPSCRKLVIIYMSCL
amyloid nucleation score: inactive

PGRLSYLPHMFKYLLLITYT
amyloid nucleation score: inactive

PGRTSYMKVPYCKWSEWPAK
amyloid nucleation score: inactive

PGRYFMHLLELV
amyloid nucleation score: inactive

PHTSMDALEMSD
amyloid nucleation score: inactive

PHTWGGR
amyloid nucleation score: inactive

PIFFMIVYAVATYCKEGSHS
amyloid nucleation score: inactive

PIVRWVSSLLYVVRWLPRLA
amyloid nucleation score: inactive

PIYMYLFSTHVSNQFVKGAF
amyloid nucleation score: 3.08 ± 0.06

PKCRMSMA
amyloid nucleation score: inactive

PKYALMRFRFYSGLR
amyloid nucleation score: inactive

PLAGLELCMRRRWVEE
amyloid nucleation score: inactive

PLFNRYVSF
amyloid nucleation score: inactive

PLGVRQQWEGSQVDPCGLRA
amyloid nucleation score: inactive

PLNNGHLLSMPICKIRLVKA
amyloid nucleation score: inactive

PLYVQSG
amyloid nucleation score: inactive

PMAELIWDLVLRLKLSNKKR
amyloid nucleation score: 1.43 ± 0.074

PMHGGTSSQSYNNLLRRSVK
amyloid nucleation score: inactive

PNGLKTGGETRGRFYKCYMY
amyloid nucleation score: inactive

PNGREWIMKYVGDAGYRVLS
amyloid nucleation score: 0.515 ± 0.36

PNKDSLWDPFKQQSRSEK
amyloid nucleation score: -0.455 ± 0.93

PNWEWIVYKMLGTFVHSWVM
amyloid nucleation score: inactive

PPCMYTMYCEYNVLQSSSKY
amyloid nucleation score: 1.64 ± 0.082

PQDRFSE
amyloid nucleation score: 1.29 ± 0.14

PQHLFST
amyloid nucleation score: inactive

PRCMYRLVFICGPGFRCSAG
amyloid nucleation score: -0.07 ± 0.47

PRDGERFLG
amyloid nucleation score: inactive

PRKTFVKCNRRLNSW
amyloid nucleation score: inactive

PRLAIKAHGVWVGKSFIGET
amyloid nucleation score: inactive

PRNFFLRVMHY
amyloid nucleation score: inactive

PRSEVTRTLYIFSVWHQMRI
amyloid nucleation score: inactive

PRTSKFVAVAFKV
amyloid nucleation score: inactive

PRYFSRASSKNSRF
amyloid nucleation score: inactive

PSCFLPFNCPITLVYTCSLF
amyloid nucleation score: 2.14 ± 0.07

PSENKRGFPDLVFAMINSGI
amyloid nucleation score: inactive

PSFMLVVIKVTYVMADSNMR
amyloid nucleation score: inactive

PSGSVCGPHHIPHVDVSGIS
amyloid nucleation score: inactive
